In experiment [1] the target is T1, NY-ESO-1 peptide on HLA-A*02:01 (human).
T1 peptide: SLLMWITQC
The experiment is described as follows: multimer staining.

Experiment [2] concerns the target T1, NY-ESO-1 peptide on HLA-A*02:01. The experiment can be described thus: activation reporter or marker.

Changes are numbered by the printed parent chain.

B1: NY7JSY (TCR, V domains shown)
Valpha: QKEVEQNSGPLSVPEGAIASLNCTYSDRGSQSFFWYRQYSGKSPELIMFIYSNGDKEDGRFTAQLNKASQYVSLLIRDSQPSDSATYLCAVMRAGGFKTIFGAGTRLFVKA
Vbeta: DSGVTQTPKHLITATGQRVTLRCSPRSGDLSVYWYQQSLDQGLQFLIQYYNGEERAKGNILERFSAQQFPDLHSELNLSSLELGDSALYFCASSVVDGEQYFGPGTRLTVT
As for B1, in experiment [1], the binding result was “recognises”.

B2: NY7 variant TCR ID 5 (Table A) (TCR, V domains shown)
Valpha: B1 Valpha with G29W
Vbeta: B1 Vbeta
Consider B2, for which the binding result in experiment [2] was “recognises”.

For the origin of these results see patent US12584107B2 (dated 2026).
